Experiment [1] has as its target wild-type HMPV F protein (soluble, secreted, with C-terminal GCNt trimerization domain) (human metapneumovirus, B2 strain). Kind of experiment: SPR; BiOptix 404pi; F proteins captured on NiHC1000m chip through their C-terminal His tag to 120 RU; Fab injected at 300 to 0.14 nM, 100 ul/min; 10 mM HEPES pH 7.2, 150 mM NaCl, 0.005% Tween 20, 50 uM EDTA; simple Langmuir model. On the technique in general: Surface plasmon resonance follows binding to a sensor surface in real time, without labels.

Experiment [2] has the same target. The experiment is described as follows: SEC; gel filtration of the purified F proteins alone (Superdex-200, 25 mM sodium phosphate pH 7.4, 100 mM NaCl). Background: In gel filtration, larger molecules generally elute earlier.
For experiment [3] the target is unchanged. The experiment is described as follows: negative-stain EM; purified F proteins on carbon-coated copper grids, 2% uranyl formate; unheated and heated to 50°C.
For experiment [4], the target named is DS-7 Fab (anti-HMPV F neutralizing antibody). Kind of experiment: SPR; as a1 (ProteOn, Fab immobilised, F injected, bivalent analyte model), but HMPV F proteins heated to 50°C for 30 minutes (post-fusion form).
For experiment [5] the target is unchanged. Kind of experiment: SPR; Bio-Rad ProteOn XPR36; biotinylated antibodies (Fabs) immobilised on NLC chip at 80-300 RU; unheated HMPV F injected at 500, 166.7, 55.5, 18.5, 6.2, 0 nM, 100 ul/min; 20 mM NaPO4 pH 7.4, 100 mM NaCl, 10 mM imidazole, 0.005% Tween 20; bivalent analyte model.

For the substance “DS-7 Fab (anti-HMPV F neutralizing antibody)”, in experiment [1], the Kd worked out at 0.3 nM, the koff came out at 0.000197 s⁻¹, the kon stood at 684000 M⁻¹ s⁻¹ and the t1/2 is 59 min.

The substance “wild-type HMPV F protein (soluble, secreted, with C-terminal GCNt trimerization domain) (natural protein)” had a stoichiometry N in experiment [2] of 3. In experiment [3], the stoichiometry N worked out at 3. In experiment [4], this substance displayed a Kd of 2.8 nM, a koff of 0.000258 s⁻¹, an on-rate (kon) of 95700 M⁻¹ s⁻¹ and a t1/2 of 45 min. Also, in experiment [5], the Kd was found to be 0.83 nM, the koff came out at 0.00012 s⁻¹, the kon was 147000 M⁻¹ s⁻¹ and the t1/2 is 96 min.

What is called koff is the first-order rate constant of dissociation. Read a low koff as slow dissociation. A word on the kon: it is a measure of how fast the partners come together. Read a high kon as fast association. Broadly, the stoichiometry N is a count of units in the complex or per binding partner.

Source of the values: paper PMC4880302.
